Measurements as given in the supplement of paper PMC11246515.
± gives the standard deviation of the averaged measurements.

Assay: total protein half-life in vivo (active degradation + dilution); higher = more stable protein
[1] = E. coli NCM3722 delta-clpP delta-lon delta-hslV, growth: N-lim chemostat, doubling time 6 h
[2] = wild type E. coli NCM3722, growth: C-lim chemostat, doubling time 12 h
[3] = E. coli NCM3722 delta-clpP, growth: N-lim chemostat, doubling time 6 h
[4] = E. coli NCM3722 delta-hslV, growth: N-lim chemostat, doubling time 6 h
[5] = E. coli NCM3722 delta-lon, growth: N-lim chemostat, doubling time 6 h
[6] = E. coli NCM3722 delta-smpB, growth: N-lim chemostat, doubling time 6 h
[7] = wild type E. coli NCM3722, growth: C-lim chemostat, doubling time 3 h
[8] = wild type E. coli NCM3722, growth: C-lim chemostat, doubling time 6 h
[9] = wild type E. coli NCM3722, growth: N-lim chemostat, doubling time 6 h
[10] = wild type E. coli NCM3722, growth: N-lim chemostat, doubling time 12 h
[11] = wild type E. coli NCM3722, growth: P-lim chemostat, doubling time 6 h
[12] = wild type E. coli NCM3722, growth: P-lim chemostat, doubling time 12 h

Sequence	total protein half-life in vivo [1] [h]	total protein half-life in vivo [2] [h]	total protein half-life in vivo [3] [h]	total protein half-life in vivo [4] [h]	total protein half-life in vivo [5] [h]	total protein half-life in vivo [6] [h]	total protein half-life in vivo [7] [h]	total protein half-life in vivo [8] [h]	total protein half-life in vivo [9] [h]	total protein half-life in vivo [10] [h]	total protein half-life in vivo [11] [h]	total protein half-life in vivo [12] [h]
MNRFIMANSQQCLGCHACEIACVMAHNDEQHVLSQHHFHPRITVIKHQQQRSAVTCHHCEDAPCARSCPNGAISHVDDSIQVNQQKCIGCKSCVVACPFGTMQIVLTPVAAGKVKATAHKCDLCAGRENGPACVENCPADALQLVTDVALSGMAKSRRLRTARQEHQPWHASTAAQEMPVMSKVEQMQATPARGEPDKLAIEARKTGFDEIYLPFRADQAQREASRCLKCGEHSVCEWTCPLHNHIPQWIELVKAGNIDAAVELSHQTNTLPEITGRVCPQDRLCEGACTIRDEHGAVTIGNIERYISDQALAKGWRPDLSHVTKVDKRVAIIGAGPAGLACADVLTRNGVGVTVYDRHPEIGGLLTFGIPSFKLDKSLLARRREIFSAMGIHFELNCEVGKDVSLDSLLEQYDAVFVGVGTYRSMKAGLPNEDAPGVYDALPFLIANTKQVMGLEELPEEPFINTAGLNVVVLGGGDTAMDCVRTALRHGASNVTCAYRRDEANMPGSKKEVKNAREEGANFEFNVQPVALELNEQGHVCGIRFLRTRLGEPDAQGRRRPVPVEGSEFVMPADAVIMAFGFNPHGMPWLESHGVTVDKWGRIIADVESQYRYQTTNPKIFAGGDAVRGADLVVTAMAEGRHAAQGIIDWLGVKSVKSH	5.28	1.34	–	–	–	–	–	–	–	–	–	–
MNRIEHYHDWLRDAHAMEKQAESMLESMASRIDNYPELRARIEQHLSETKNQIVQLETILDRNDISRSVIKDSMSKMAALGQSIGGIFPSDEIVKGSISGYVFEQFEIACYTSLLAAAKNAGDTASIPTIEAILNEEKQMADWLIQNIPQTTEKFLIRSETDGVEAKK	4.867 ± 0.043	10.5 ± 1.5	4.24 ± 0.64	6.68 ± 0.67	4.5 ± 0.39	3.94 ± 0.3	3.17 ± 0.17	5.22 ± 0.1	4.14 ± 0.32	6.67 ± 0.1	5.2 ± 0.7	11.1 ± 0.76
MNRIYACPVADVPEGEALRIDTSPVIALFNVGGEFYAINDRCSHGNASMSEGYLEDDATVECPLHAASFCLKTGKALCLPATDPLTTYPVHVEGGDIFIDLPEAQP [P0ABW0]	–	–	–	–	–	–	–	–	–	–	–	2.53
MNRLPSSASALACSAHALNLIEKRTLDHEEMKALNREVIEYFKEHVNPGFLEYRKSVTAGGDYGAVEWQAGSLNTLVDTQGQEFIDCLGGFGIFNVGHRNPVVVSAVQNQLAKQPLHSQELLDPLRAMLAKTLAALTPGKLKYSFFCNSGTESVEAALKLAKAYQSPRGKFTFIATSGAFHGKSLGALSATAKSTFRKPFMPLLPGFRHVPFGNIEAMRTALNECKKTGDDVAAVILEPIQGEGGVILPPPGYLTAVRKLCDEFGALMILDEVQTGMGRTGKMFACEHENVQPDILCLAKALGGGVMPIGATIATEEVFSVLFDNPFLHTTTFGGNPLACAAALATINVLLEQNLPAQAEQKGDMLLDGFRQLAREYPDLVQEARGKGMLMAIEFVDNEIGYNFASEMFRQRVLVAGTLNNAKTIRIEPPLTLTIEQCELVIKAARKALAAMRVSVEEA	4.74 ± 0.26	1.06 ± 0.45	3.09 ± 0.83	0.385 ± 0.062	0.49 ± 0.12	0.289 ± 0.0059	0.378 ± 0.04	0.631 ± 0.033	0.848 ± 0.61	0.594 ± 0.085	0.667 ± 0.37	1.3 ± 0.8
MNRTDELRTARIESLVTPAELALRYPVTPGVATHVTDSRRRIEKILNGEDKRLLVIIGPCSIHDLTAAMEYATRLQSLRNQYQSRLEIVMRTYFEKPRTVVGWKGLISDPDLNGSYRVNHGLELARKLLLQVNELGVPTATEFLDMVTGQFIADLISWGAIGARTTESQIHREMASALSCPVGFKNGTDGNTRIAVDAIRAARASHMFLSPDKNGQMTIYQTSGNPYGHIIMRGGKKPNYHADDIAAACDTLHEFDLPEHLVVDFSHGNCQKQHRRQLEVCEDICQQIRNGSTAIAGIMAESFLREGTQKIVGSQPLTYGQSITDPCLGWEDTERLVEKLASAVDTRF	5.25 ± 0.74	10.3 ± 0.59	–	4.47 ± 0.041	4.88 ± 0.15	4.62 ± 0.51	3.089 ± 0.021	6.53 ± 1.7	5.28 ± 0.75	7.35 ± 0.6	6.03 ± 0.34	11.8 ± 0.39
MNSFNEGVVSPLLSFWRRSLMLAGALLLTACSHNSSLPPFTASGFAEDQGAVRIWRKDSGDNVHLLAVFSPWRSGDTTTREYRWQGDNLTLININVYSKPPVNIRARFDDRGDLSFMQRESDGEKQQLSNDQIDLYRYRADQIRQISDALRQGRVVLRQGRWHAMEQTVTTCEGQTIKPDLDSQAIAHIERRQSRSSVDVSVAWLEAPEGSQLLLVANSDFCRWQPNEKTF	6.47 ± 1.2	11.2	7.12 ± 0.33	6.4	6.98	6.11 ± 0.48	3.17 ± 0.14	–	6.3 ± 0.074	13.2 ± 1.6	6.31 ± 0.4	14.1 ± 1.4
